Data on one molecule can be found in patent US20180021429A1, “ANTICANCER AGENTS OR ANTIMETASTATIC AGENTS USING FSTL1 AND COMBINATION DRUG THEREOF” (PHARMA FOODS INTERNATIONAL CO., LTD., priority 2015, published 2018).

Experiment [1] has as its system GFP-positive and Snail-positive B16-F10 tumor cells. In words: Snail-positive B16-F10 bone metastasis model, intratumoral administration (Example 17). The format is in vivo, mouse. Conditions: intratumoral 10 mg/kg on day 7, assay day 14; FIG. 105A. The source says: Three antibodies were comparatively analyzed for their antitumor effects and an immunosuppression-mitigating effect using bone metastasis models in which mouse melanoma cells B16-F10 forced to express Snail were subcutaneously and intravenously transplanted in C57BL/6N mice.
1. Experiment Group (n=5) • 1. No treatment • 2. Control IgG (anti-DNP) • 3. Anti-FSTL1 Clone #6-55 • 4. Anti-FSTL1 Clone #7-34 • 5. Anti-FSTL1 Clone #8-1
• Day 0: transplantation of GFP-positive and Snail-positive B16-F10 tumor cells (5×10^5 cells subcutaneously & 1×10^5 cells intravenously) • Day 7: intratumoral administration of the antibody (200 μg/0.1 mL/tumor) • Day 14: various assays (with a focus on flow cytometry analysis)
• Effects on the growth of subcutaneous tumor (calculation of tumor volume by tumor size measurement): measured 7, 11, and 14 days after tumor implantation (FIG. 105C) • Effects on bone metastasis (GFP-positive tumor cells in bone marrow) (FIG. 105A) • Effects on the expansion of mesenchymal stem cells (CD45− negative cells in bone marrow and in the spleen) (FIGS. 105B and 105D) • Effects on the expansion of immunosuppressive Treg cells (CD4-positive and Foxp3-positive cells in bone marrow or the spleen) (FIG. 105D) • Other immunosuppressive properties (FIG. 105D)
In order to evaluate in vivo antibody activity, antitumor effects and immunosuppression-mitigating effects were comparatively analyzed using bone metastasis models in which mouse melanoma cells (B16-F10) forced to express Snail were subcutaneously and intravenously transplanted in C57BL/6N mice. […]
It is known that when Snail-positive tumor cells are subcutaneously or intravenously transplanted to mice, the tumor metastasizes preferentially to bone marrow in addition to various organs, and this incurs the expansion of mesenchymal stem cells (MSCs) originating in the bone marrow, thereby systemically and strongly suppressing the induction of antitumor immunity (Cancer Research 73: 6185, 2013). […] The percentage (%) of CD45^− cells in the bone marrow cells was analyzed by flow cytometry.

The target of experiment [2] is T1, mouse FSTL1 (Mus musculus, UniProt Q62356).
T1 construct: AAA linker + 10xHis (C); made in house; host or cells: Expi293 (transient expression; purified from culture supernatant on HisPur Cobalt Resin)
T1 sequence (Q62356 with tags, fused parts or gaps): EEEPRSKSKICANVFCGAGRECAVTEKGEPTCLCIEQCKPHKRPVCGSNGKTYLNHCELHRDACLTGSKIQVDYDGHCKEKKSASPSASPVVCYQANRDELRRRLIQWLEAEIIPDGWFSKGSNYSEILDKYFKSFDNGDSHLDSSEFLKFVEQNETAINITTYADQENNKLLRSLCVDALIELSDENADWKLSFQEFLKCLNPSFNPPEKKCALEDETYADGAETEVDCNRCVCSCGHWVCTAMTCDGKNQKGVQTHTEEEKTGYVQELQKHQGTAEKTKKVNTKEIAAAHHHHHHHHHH
Briefly: ELISA binding activity of purified antibody against mouse FSTL1 (Example 2). The note with it: FIG. 1B/31B. The procedure: (§1) The reactivity of the obtained antibody clones described above with FSTL1 was evaluated by ELISA under the following conditions.
(Table 2 ELISA conditions for binding activity evaluation of purified antibody) Antibodies used: anti-dinitrophenyl (DNP) antibody (negative control), #5-2, #5-3, #5-8, #5-10, #5-43, #6-55, and #7-34
FIGS. 2 and 3 show results of evaluating binding activity under the condition of Table 3 as to clones differing in screening and antibody purification timings.
(§2) Antibodies used: anti-dinitrophenyl (DNP) antibody (negative control), #5-2, #5-3, #5-8, #5-10, #5-43, #6-55, and #7-34
FIGS. 32 and 33 show results of evaluating binding activity under the condition of Table 3 as to clones differing in screening and antibody purification timings.

A further experiment has as its target T2, FSTL1 (Homo sapiens, UniProt Q12841).
T2 sequence (Q12841 21-308): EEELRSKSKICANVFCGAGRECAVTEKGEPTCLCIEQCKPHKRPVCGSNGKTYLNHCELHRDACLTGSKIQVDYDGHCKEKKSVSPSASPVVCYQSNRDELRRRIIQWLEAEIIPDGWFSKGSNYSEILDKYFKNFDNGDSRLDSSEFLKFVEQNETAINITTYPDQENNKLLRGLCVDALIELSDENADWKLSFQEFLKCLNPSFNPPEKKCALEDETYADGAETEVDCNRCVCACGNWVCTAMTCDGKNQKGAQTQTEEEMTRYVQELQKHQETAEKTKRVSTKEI
In words: Biacore T-200 affinity of mouse chimeric antibodies for human FSTL1 (Example 33). The experiment is classed as binding. The procedure: The mouse chimeric antibodies were immobilized onto Sensor Chip CM5 (GE Healthcare Japan Corp., BR-1005-30) using Mouse Antibody Capture Kit (GE Healthcare Japan Corp., BR-1008-38), and their affinity for human FSTL1 was calculated using Biacore T-200 (GE Healthcare Japan Corp.).
First, the exhaustive activity comparison of the obtained antibodies was conducted with the human FSTL1 concentration fixed to 10 μg/ml (Table 33-1, FIG. 122).
Next, the KD values of clone #6-55, #7-34, and #13 presumed to have high affinity in FIG. 122 were calculated with the antigen concentration adjusted to 0 to 20 μg/ml (Table 35-2).

Experiment [3] deals with T1, mouse FSTL1. In words: ELISA, binding activity of purified antibody against mouse FSTL1 (Example 2). The note with it: cross reactivity test; antibody diluted from 1000 ng/ml. On the procedure:
as §1, §2
FIGS. 64 and 65 show results of evaluating binding activity under the condition of Table 3 as to clones differing in screening and antibody purification timings.

B1: #6-55: chicken-mouse chimeric anti-FSTL1 antibody clone; variable regions SEQ ID NO: 783 (light), 785 (heavy) (antibody, V domains shown)
VH: AVTLDESGGGLQTPGGALSLVCKGSGFTFTSVTMQWVRQAPGKGLEWVASVCSGSSTYYAPAVKGRATISRDNGQSTVRLQLSNLRPEDTGTYYCAKIAGRARWSCTSAAYNIDAWGHGTEVIVSS
VL: ASTQPSSVSAIPGETVKITCSGGGNNYGWYQQRSPGSAPVTVIYYNDNRPSNIPSRFSGSTSGSTSTLTITGVQADDEAIYYCGSWDSNTDSGIFGAGTTLTVL
modifications: mouse constant regions
In the case of B1, in experiment [1], the “bone metastasis (GFP-positive tumor cells in bone marrow)” value is listed as “suppressed”. Besides, the “binding activity against mouse FSTL1” value in the experiment with mouse FSTL1 [2] is “specific and equivalently strong binding activity”; with mouse FSTL1 [3] it was “specific and equivalently strong binding activity”. Moreover, the “affinity in an assay system using surface plasmon resonance” value with FSTL1 is on record as “strong affinity”.
